Reference: paper PMC2811263 (Arteriosclerosis, thrombosis, and vascular biology, 2009)

What was measured:
wild-type mouse GPIHBP1 = target: T1, wild-type mouse GPIHBP1 (mouse, UniProt Q9D1N2 23-198); assay: binding of added LPL to transfected cells, bound LPL quantified by ELISA
T1 sequence (looked up): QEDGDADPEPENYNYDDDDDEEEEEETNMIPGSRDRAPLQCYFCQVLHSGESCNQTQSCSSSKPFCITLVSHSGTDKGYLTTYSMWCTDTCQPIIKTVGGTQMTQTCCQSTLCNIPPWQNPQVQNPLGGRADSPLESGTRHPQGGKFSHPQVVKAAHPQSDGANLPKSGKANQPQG

[1] = target: T2, wild-type human GPIHBP1 (glycosylphosphatidylinositol-anchored high-density lipoprotein-binding protein 1) (human, UniProt Q8IV16 21-151); assay: as above
T2 sequence (looked up): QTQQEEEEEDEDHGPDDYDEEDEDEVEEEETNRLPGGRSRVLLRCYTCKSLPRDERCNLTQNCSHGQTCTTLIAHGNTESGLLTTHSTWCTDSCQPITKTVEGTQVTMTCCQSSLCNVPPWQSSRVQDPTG

- fold more LPL bound than by cells expressing GPIHBP1-Q114P (wild-type mouse GPIHBP1): 20.2 fold
- fold more LPL bound than by cells expressing GPIHBP1-Q115P [1]: 39.8 fold
B1: avian lipoprotein lipase (LPL) (enzyme, UniProt P11602 26-490, looked up)
chain: SDPEAEMNFEGIESKFSLRTPAEPDEDVCYLVPGQMDSLAQCNFNHTSKTFVVIHGWTVTGMYESWVPKLVDALYKREPDSNVIVVDWLVRAQQHYPVSAAYTKLVGKDVAMFIDWMEEKFNYPLNNVHLLGYSLGAHAAGIAGSLTKKKVNRITGLDPAGPTFEYADAPIRLSPDDADFVDVLHTYTRGSPDRSIGIQKPVGHIDIYPNGGGFQPGCNLGEALRLIAEKGFSDVDQLVKCSHERSIHLFIDSLLYEEKPSMAYRCNTKEAFEKGLCLSCRKNRCNNLGYKVNRVRTKRNTKMYLKTRAQMPYKVFHYQVKIHFFGKTNVTKVDQPFLISLYGTLDESENIPFTLPEVSSNKTFSFLIYTEVDIGDLLMLKLQWEKDTFFSWSDWWTPFAFTIQRVRVKSGETQKKVVFCSRDGSSRLGKGEEAAIFVKCLEQPVSRKRGGAKKASKENSAHESA
